Measured values: the nanobody polyreactivity screen of Harvey et al. (2022)

Assay: yeast display, Sf9 membrane polyspecificity reagent, FACS + sequencing; frameworks hold sequencing errors
Procedure, shortened: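 Sorting gates, low and high (top ~1%), were placed on anti-HA fluorescence to track expression and on streptavidin fluorescence to track reagent binding. A clone's polyreactivity label is taken from the gate it came out of. The reagent was 10% biotinylated, detergent-solubilized Sf9 membrane, applied for 1 hour at 4 °C to galactose-induced yeast display cells.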

Sequence | polyreactivity (PSR sort gate)
QVQLVESGGGLVQAGGSLRLSCAASGRILDKYAMGWYRQAPGKERELVARIRFSGGDTYADSVKGRFTISRDNAKNTVYLQMNSLKPEDTAVYYCNKDRRNRWYAFDYWGQGTQVTVSS | low polyreactivity
QVQLVESGGGLVQAGGSLRVSCAASGFIFLYYAMGWYRQAPGKERELVADISRGADTKYADSVKGRFTISRDNAKNTVYLQMNSLKPEDTAVYYCATDITTFWFPYPGVELGYWGQGTQVTVSS | low polyreactivity
QVQLVESGGGLVQAGGSLRLSCAASGRIFPYYAMGWSRQAPGKERELVAAISLSGGSTYYADSVKGRFTISRDNAKNTVYLQMNSLKPEDTAVYYCNAVASTYGYYWYPGLGYDYWGQGTQVTVSS | low polyreactivity
QVQLVESGGGLVQAGGSLRLSCAASGRTIGYNDLGWYRQAPGKERELVAAIDWSGGSTYYADSVKGRFTISRDNAKNTVYLQMNSLKPEDTAVYDCAALVWRDEYDYLGQGTQVTVSS | low polyreactivity
QVQLVESGGGLVQAGGSLRLSCAASGSIFTPNAMGWYRQAPGKERELVAAISSSSDRTYYADSVKGRFTISRDNAKNTVYLQMNSLKPEETAVYYCAAYAQKRYYWGQGTQVTVSS | high polyreactivity
QVQLVESGGGLVQAGGSLRLSCAASGFIFGYNAMGWYRQAPGKERELVAAISTRGGSTYYADSVKGRFTISRDNAKNTVYLQMNSLKPEDTAVYYCNKVTRVPFDSWGQGTQVTVSS | high polyreactivity
QVQLVESGVGLLQAGGSLRLSCAASGFIFSFYAMGWYRQAPGKERELVAGISQSGGRTYYADSVKGRFTISRDNAKNNVFLQMNSLKPEDTAVYYCAAQWYYSLYVSGDYWGQGTQVTVSS | high polyreactivity
QVQLVESGGGLVQAGGSLRLSCAASGGTFTDYAMGWYRQAPGKERELVAAISSVGSTNYADSVKGRFTISRDNAKNTVYLQMNSLKPEDTAVYYCAVDYGRAVQGDSITYDFNYWGQGTQVTVSS | low polyreactivity
QVQLVESGGGLVQAGGSLRLSCAASGRTFYLYTMGWYRQAPGKVSELVATISDGGGGTYYADSVKGRFTISRDNAKNTVYLQMNRLKPEDTAVYYCSADPIDVRDVPIPHVDFDYWGQGTQVTVSS | low polyreactivity
QVQLVESGGGLVQAGGSLRLSCAASGSIFNGYALGWYRQAPGKERELVAAISSGGCTNYADSVKGSFTISRDNAKNTVYLQMNSLKPEDTAVYYCDKDYGYYWPWHYIASYEYDYWGQGTQVTVSS | low polyreactivity
QVQLVESGGGLVQAGGSLRLSCAASGRTFSSNTMGWYRQAPGKERELVAAITKSGANTYYADSVKGRFTISRDNAKNTVYLQMNSLKPEDTAVYYCAAPGKVQRYYYWGQGTQVTVSS | high polyreactivity
QVQLVESGGGLVQAGGSLRLSCAASGNIFGFYTMGWYRQAPGKERELVAAIRSRGGSTNYADSVKGRFTISRDNAKNTVYLQMNSLTPEDTAVYYCNKDGTWLARAVTYADFDYWGQGTQVTVSS | low polyreactivity
QVQLVESGGGLVQAGGSLRLSCAASGLIFYFYAMGWYRQAPGKERELVAGITNVGSTNYADSVKGRFTISRDNAKNTVYLQMNSLKPEDTAVYYCAAQYYTVRSTYDYWGQGTQVTVSS | high polyreactivity
QVKLVESGGGLVQAGGSLRLSCAASGSTFLIYAMGWYRQAPGKERELVAAITVSGGDTYYADSVKGRFTISRDNAKNTVYLQMNSLKPEDTAVYYCAAEGGNDYSSVDAGISYDYWGQGTQVTVSS | low polyreactivity
QVQLVESGGGLVQAGGSLRLSCAASGSTISSNAMGWYRQAPGKERELVAAIDSGGSTYYADSVKGRFTISRDNAKNTVYLQMNSLKPEDTAVYYCNPERETYDTGRAVLPGGYWGQGTQVTVSS | low polyreactivity
QVQLVESGGGLVQAGGSLRLSCAASGNTFRFYAMGWYRQAPGKERELVADITRGGSTNYADSVKGRFTISRDNAKNTVYLQMNSLKPEDTAVYYCAARPWYYTSSFYYGRYDYWGQGTQVTVSS | high polyreactivity

Sequence | polyreactivity (PSR sort gate)
QVQLVESGGGLVQAGGSLRLSCAASGYLRVNAMGWYRQAPGTERELVAAITGNGGRTYYADSVKGRFTISRDNAKNTVYLQMNSLKPEDTAVYYCNIAGSSRSWFGSYYWGQGTQVTVSS | high polyreactivity
QVQLVESSGGLVQAGGSLRLSCAASGFSFKRYAMGWYRQAPGTERELVAAINSGGSTNYADSVKGRFTMSRDNAKNTVYLQMNSLKPEDTAVYSCAASTPQYQYYYWGQGTQVTVSS | high polyreactivity
QVQLVESGGGLVQAGGSLRLICAASGSTITLYAMGWYRQAPGKERELVAAISGIGDSTYYADSVKGRFTISRDNAKNTVYLQMNSLKPEDTAVYYCAADGEYRYDWEYESWGQGTQLTVSS | low polyreactivity
QVQLVESGGGLVQAGGSLGLSCAPSGYTFVPYVMGWYRQAPGKERELVAAISRGGSTYYADSVKGRFTISRDHAKNTVYLQMNSLKPEDTAVYYCNAGWFKYYPNLQAFKYWGQGTQVTVSS | high polyreactivity
QVQLVESGGGLVQAGGILRLSCAASGSTFAVNAMGWYRQAPGKERELVAAISTSGGSTYYADSVKGRFTISRDNAKNTVYLQMNSLKPEDTSVYDCAAGRVRRRVWYNYWGQGTQVTVSS | high polyreactivity
QVQLVESGGGLVQAGGSLRLSCAASGRIFVPYAMGWYRQAPGKERELVAAISRSSPTYYADSVKGRFTISRDNAKNSVYLQMNSLKQEDTAGYYCAAAYYATTPKADYHFRGYEYWGQGTQVTVSS | high polyreactivity
QVQLVESGGGLVQAGGSLRLSCAASGLIFPRYAMGWYRQAPGKETELVAAISRSGGNTYYADSVKGRFTISRDNAKNTVYLQINRLKPEDTAVYYCAAYLKVRSPRDGYDYWGQGTQVSVSS | high polyreactivity
QVQLVESGGGLVQAGGSLRLSCAASGSTIPLYAMGWYRQAPGKERELVAAISRRGGRTYYADSVKGRFTISRDNAKNSVYLQMNSLKPEDTGVYYCAARYTRRHYDYWGQGTKVTVSS | high polyreactivity
QDQLVESGGGLVQAGGSLRLSCAASAFIFSSYAMGWYRQAPGKERELVAAITVRAGRTYYADSVKGRFTISRDNAKYTVYLEMNSLKPEDSAVYYCAADSGLWGYYYWGQGTQVTVSS | high polyreactivity
QVQLVESGGGLVQAGGSLRLSCAASGIIFVDYVMGWYRQAPGKERELVAAITYTGGSTYYADSVKGRFTISRDNAKNTVYLQMNSLKPEDTAVYYCAARRKHRFFPAYYYWGQGTQVTVSS | high polyreactivity
QVQLVESGGGLVQAGGSLRLSCAASGRTFPGYAMGWYRQAPGKERELVAAITSSGSSTYYADSVKGRFTISRDNAKNTVYLQMNSLKPEDTAVYYCAAKTSGDYDYWGQGSQVTVSS | low polyreactivity
QVQLVESGGGLVQAGGSLSLSCAASGRILSLNAMGWYRQAPGKERELVAGIRKRGGSTYYADSVKGRFTISRDNAKNTVYLQMNSLKPEDTAVYYCAADGTLFSEYYWFFGYHDYWGQGTQVNVSS | high polyreactivity
QVQLVESGGGLVQAGGSLRLSCAASGTTFGPNAMGWYRQAPGTERELVAAIRWRGGSTYYADSVQGRFTIARDNAKNTVYLQMNSLKPEDTAVYYCADTRYSWHNRVSRRHRYDYWGQGTQVTVSS | high polyreactivity
QVQLVESGGGLVQAGGSLRLSCAASGFIIRYYTMGWSRQAPGKERELVAVITSGGTTYYADSVKGRFTISRDNAKNTVYLQMNSLKPEDTAVYYCAADYRPRLDGVGVDYWGQGTQVTVSS | low polyreactivity
QVQLVESVGGLVQAGGSLRLSCAASGSTFADYVMGWYRQAPGKERELVAAITSSGGSTYYADSVNGRFTISRDNAKNTVYLQMNSLKPEDTAVYYCAAQQSPSVDYWGQGTQVTVSS | low polyreactivity
